Measured values: patent US20170115293A1

Target: FAS (CD95, APO-1) death receptor (human) (UniProt P25445)
Test: cell-based or functional assay

Chain of UniProt P25445 (P25445 26-335): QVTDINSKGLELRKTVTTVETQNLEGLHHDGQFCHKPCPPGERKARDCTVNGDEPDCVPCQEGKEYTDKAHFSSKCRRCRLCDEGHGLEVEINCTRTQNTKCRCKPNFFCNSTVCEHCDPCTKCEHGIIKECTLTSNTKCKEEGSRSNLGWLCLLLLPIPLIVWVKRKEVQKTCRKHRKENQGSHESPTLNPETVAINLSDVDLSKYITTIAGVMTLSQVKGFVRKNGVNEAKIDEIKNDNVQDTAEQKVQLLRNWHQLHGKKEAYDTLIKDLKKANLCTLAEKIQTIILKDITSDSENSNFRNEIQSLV

## CH11, a FAS agonistic (stimulating) antibody (monoclonal mouse antibody, cat. no. 05-201; EMD Millipore)
  clonogenic cell survival of SUM159: radiation dose to achieve a surviving fraction of 0.1: 3.25 Gy
  clonogenic cell survival of SUM159 after irradiation: dose-modifying factor: 2.5
